According to the supplement of paper PMC10567573:

B1: SLC6A17 (parent)
chain: HMFTPKLDKMLDPQVWREAATQVF
B2: KRT15 (parent)
chain: SNFHINVEESVDGQVVSSHKREI

Variants of: B1
Assay: protein stability index of a GFP-peptide fusion (GPS, HEK-293T) (PSI 1-6); higher = more stable
Details: c terminus: a fixed tail appended
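Also: lentivirally expressed fusions sorted by FACS into six bins by GFP to DsRed ratio, PSI derived from sequencing read proportions per bin multiplied by bin number.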

Protein stability index, by site and new letter:
F24: T 2.38; V 2.69; R 2.85; S 3.39; Q 2.64; Y 1.88

Variants of: B2
Assay: as above
Details: c terminus: native

Protein stability index, by site and new letter:
S17: E 2.91; R 1.7; L 2.06; I 1.12; V 2.42; H 2.17; N 1.91; Q 1.68; Y 2.27; T 2.5; M 1.29; P 1.43; D 1.8; A 2.37; F 2.65; W 4.29; G 2.73; K 1.82
V15: D 2.82; M 4.02; L 1.78; C 1.48; Q 2.78; E 2.23; Y 2.12; A 1.71; S 3.12; P 2.84; I 2.11; H 1.83; T 2.31; F 1.96; G 2.67; N 2.52
F3: M 2.2; V 2.18; Y 1.61; R 2.87; S 1.91; K 2.7; Q 2.5; N 2.78; A 2.51; C 4.67; H 3.1; T 2.69; D 3.01; E 2.33; I 2.77; P 2.15; L 1.84
H19: S 4.55; L 2.08; M 2.39; D 5; N 4.44; I 2.03; P 4.66; V 3.51; K 2.95; C 2.22; F 1.33; A 2.75; E 4.9; Y 3.48; Q 2.88
S18: T 1.63; G 1.54; R 3.29; P 3.1; A 1.37; Q 1.27; D 3.92; N 2.72; Y 3.37; I 2.44; K 2.06; C 2.21; M 1; E 3.06
G13: V 1.55; K 2.29; L 1.78; N 2.3; Q 1.96; T 2.18; S 1.81; F 1.86; H 1.64; E 1.89; C 1.98; A 2.73; I 2.02; D 2.36; P 2.19; R 2.35; Y 2.59
H4: A 1.98; F 1.49; Y 2.37; C 2.78; K 1.94; R 1.6; T 1.43; V 1.03; I 2.12; G 2.5; D 2.63; P 2.57; S 2.16; N 2.09; Q 1.52; E 3.18; M 1.59
N2: V 1.71; E 1.69; P 3.02; G 1.87; A 1.57; M 2.04; F 2.6; T 1.9; H 2.79; K 1.36; I 2.85; S 1.96; L 2.23; D 1.78; R 1.39; Y 1.68; C 2.13; W 2.14
N6: F 2.11; K 1.78; D 1.54; T 2.42; E 1.88; Q 2.27; S 1.63; G 2.24; C 1.9; H 2.28; I 3.69; L 2.23; M 2.11; Y 1.06; P 1.9
S1: N 2.03; K 1.69; G 1.39; F 3.46; D 3.04; M 1.31; Q 1.92; Y 1.23; T 2.73; W 2.31; H 2.44; V 1.78; P 2.35; C 1.57; I 2.56; A 2.11; R 2.66
D12: Y 1; I 1.34; Q 2.07; R 3.65; V 2.65; K 1.31; N 1.82; S 2.07; P 1.95; C 3.28; G 1.45; E 2.21; H 2.38; T 2.21; W 3.13; M 2.69
V16: D 2.86; A 2.19; Q 2.62; H 1.2; M 2.23; P 2.18; C 2.25; S 2.18; L 2.37; T 2.99; E 2.85; F 2.63; N 2.46; K 2.2; G 2.82; Y 2
V11: E 2.36; F 3.87; L 1.34; N 2.33; A 1.94; H 1.83; G 1.7; T 1.67; W 1.86; C 2.69; P 2.33; M 1.85; Y 1.44; Q 2.3; K 1.53; S 2.48; I 2.17; R 1.46; D 2.09
E9: P 2.26; G 1.54; S 1.45; Q 1.47; K 1; A 2.02; H 2.1; D 2.21; F 3.74; N 1.95; C 2.73; R 1.89; T 2.17; M 3.34
Q14: D 2.33; I 1.55; K 2.35; R 2.01; M 1.32; A 2.04; N 2.05; C 2.21; S 1.94; P 2.34; L 1.65; H 1.6; Y 1.72; T 2.12; F 1.99
E8: V 1.32; I 2.73; A 1.57; T 1.34; P 2.47; S 2.03; R 2.02; N 1.9; D 1.8; F 3.87; G 1.42; H 1.78; W 2.41; K 2.28; L 2.02; Y 2.88; Q 1.59; C 2.07
I5: W 1.63; M 2.59; R 2.67; V 3.37; C 4.36; T 3.02; G 2.8; H 3.01; S 3.06; P 2.98; E 3.97; K 2.14; N 3.36; Y 1.24; L 1.71; F 2.22; A 3.14; D 3.64; Q 3.1
S10: H 1.95; C 3.07; K 1.5; Q 1.81; R 2.21; T 1.91; A 2.85; Y 2.62; N 2.09; G 2.19; F 1.43; P 1.91; E 2.57; D 2.95; I 1.34; L 1.38; V 1.87
V7: L 1.34; D 2.01; M 1.14; G 3.08; A 2.76; P 2.14; I 2.18; N 2.1; H 2.11; T 3.07; S 2.12; Y 1.36; K 2.1; R 2.78; C 4; W 2.64; Q 2.88; E 3.63
K20: D 3.86; A 3.58; N 5.38; I 2.45; G 3.06; M 3.15; F 2.07; L 1.39; C 2.39; E 1.49; P 1.94; H 2.51
